B1: CMK1: yeast calcium/calmodulin-dependent serine/threonine protein kinase, GST-HisX6 fusion (protein)
chain: MDDKVSEKESSPKQTEEDSEGKMAHVQPASYVNKKKYVFGKTLGAGTFGVVRQAKNTETGEDVAVKILIKKALKGNKVQLEALYDELDILQRLHHPNIVAFKDWFESKDKFYIITQLAKGGELFDRILKKGKFTEEDAVRILVEILSAVKYMHSQNIVHRDLKPENLLYIDKSDESPLVVADFGIAKRLKSDEELLYKPAGSLGYVAPEVLTQDGHGKPCDIWSIGVITYTLLCGYSAFRAERVQDFLDECTTGEYPVKFHRPYWDSVSNKAKQFILKALNLDPSKRPTAAELLEDPWIICTELKTHNLLPGLKEGLDARQKFRNSVERVRLNMKIQKLRDLYLEQTESDSDFDEGSQANGSVPPLKATDTSQLSKKLSEEEQSKLKSELTSKAFAQLVNTVLAEKEKFLNINRVCSSDSDLPGSDIKSLDEAKEKPEGKDTKTEE
modifications: left off: a dimerising Fc or GST
notes: yeast calcium/calmodulin-dependent serine/threonine protein kinase, GST-HisX6 fusion
B2: MY04: yeast class V myosin heavy chain, GST-HisX6 fusion (protein, UniProt P32492 1-1471, looked up)
Myosin-4: MSFEVGTKCWYPHKEQGWIGGEVTKNDFFEGTFHLELKLEDGETVSIETNSFENDDDHPTLPVLRNPPILESTDDLTTLSYLNEPAVLHAIKKRYMNGQIYTYSGIVLIAANPFDKVDHLYSREMIQNYSSKRKDELEPHLFAIAEEAYRFMVHEKANQTVVVSGESGAGKTVSAKYIMRYFASVQESNNREGEVEMSQIESQILATNPIMEAFGNAKTTRNDNSSRFGKYLQILFDENTTIRGSKIRTYLLEKSRLVYQPETERNYHIFYQILEGLPEPVKQELHLSSPKDYHYTNQGGQPNIAGIDEAREYKITTDALSLVGINHETQLGIFKILAGLLHIGNIEMKMTRNDASLSSEEQNLQIACELLGIDPFNFAKWIVKKQIVTRSEKIVTNLNYNQALIARDSVAKFIYSTLFDWLVDNINKTLYDPELDQQDHVFSFIGILDIYGFEHFEKNSFEQFCINYANEKLQQEFNQHVFKLEQEEYVKEEIEWSFIEFSDNQPCIDLIENKLGILSLLDEESRLPSGSDESWASKLYSAFNKPPSNEVFSKPRFGQTKFIVSHYAVDVEYEVEGFIEKNRDSVSLGHLDVFKATTNPIFKQILDNRELRSDDAPEEQNTEKKIMIPARLSQKKPTLGSMFKKSLGELMAIINSTNVHYIRCIKPNSEKKPWEFDNLMVLSQLRACGVLETIRISCAGFPSRWTFDEFVQRYFLLTDYSLWSGILYNPDLPKEAIVNFCQSILDATISDSAKYQIGNTKIFFKAGMLAFLEKLRTNKMNEICIIIQKKIRARYYRLQYLQTMESIKKCQSQIRSLLVRTRVDHELKTRAAILLQTNIRALWKREYYRAAIGQIIKLQCTCKRKLILDSVNRKFMLMAAVIIQSYIRSYGHKTDYRTLKRSSILVQSAMRMQLARRRYIVLQKEVEERNIRASYGIGLLEEAIEFKNSFILNLEMLNDSYTRLTQLLQGDLSNIPSKQRQEYETIVNGYNDKISKLKTLQVEIMNTLNKKNALKERKKKQSSLIQSHMQSLAAIKGNKPSRLSDEVKSMKQELAFIENVIAQDFTTTYSANKNDKVKGLGIAGQQVKPKLVNVIRRESGNPDLLELLMDLNCYTLEVTEGYLKKVNVTEVNGDNVLGPIHVITTVVSSLVRNGLLIQSSKFISKVLLTVESIVMSLPKDETMLGGIFWLSNLSRLPAFAANQKTLYEANGGDEKDKLTLIYLNDLENETLKVFDKIYSTWLVKFMKHASAHIEIFDMVLNEKLFKNSGDEKFAKLFTFLNEFDAVLCKFQVVDSMHTKIFNDTLKYLNVMLFNDLITKCPALNWKYGYEVDRNIERLVSWFEPRIEDVRPNLIQIIQAVKILQLKISNLNEFKLLFDFWYALNPAQIQAILLKYKPANKGEAGVPNEILNYLANVIKRENLSLPGKMEIMLSAQFDSAKNHLRYDTSAITQNSNTEGLATVSKIIKLDRK
modifications: GST-HisX6 tag
notes: yeast class V myosin heavy chain, GST-HisX6 fusion

Target: T1, calmodulin (Homo sapiens, UniProt P0DP23)
T1 construct: purchased CalBiochem, USA
Assay: Yeast proteome chip probed with biotinylated calmodulin
Type: binding
Details: biotinylated calmodulin in the presence of calcium
Text: To test for protein-protein interactions, the yeast proteome was probed with calmodulin (11). Calmodulin is a highly conserved calcium-binding protein involved in many calcium-regulated cellular processes and has many known physical partners (Hook et al., 2001, Annu. Rev. Pharmacol. Toxicol. 41:471). The calmodulin probe was biotinylated, and bound probe was detected using Cy3-labeled streptavidin. As a control, the yeast proteome was probed with Cy3-labeled streptavidin alone.
Generally, protein-protein interactions can be assayed as follows. Blocked proteome chips are washed three to five times in PBS buffer, and the extra liquid on the glass surface is removed by tapping the slides vertically on a KIMWIPE™. 200 ∞l of biotinylated protein probe is added to the proteome chip and immediately covered by a hydrophobic plastic cover slip (GRACE BIO-LABS™, USA). After trapped air bubbles are removed, the chip is incubated in a humidity chamber at room temperature (RT) for one hour. To remove the cover slip, the chip is immersed into large volume of PBS buffer (>50 ml), and the slip should float away. The chip is then moved to a second PBS bath (>50 ml) and washed 3×5 min with shaking at RT. After removing extra liquid on the surface of the chip, at least 150 μl of Cy3- or Cy5-conjugated streptavidin (PIERCE™, USA; 1:2000 to 1:4000 dilution) is added to the surface and covered by a hydrophobic plastic cover slip (GRACE BIO-LABS™, USA). The chip is incubated for greater than 30 min in the dark at RT. The chip is then washed as described above. To completely remove the liquid on the chip, the chip is spun to dryness at 1500-2000 rpm for 5-10 min at RT.
• 1. S. Fields, Y. Kohara, D. J. Lockhart, Proc. Natl. Acad. Sci. 96, 8825 (1999); A. Goffeau et al., Science 274, 563 (1996). • 2 P. Ross-Macdonald et al., Nature 402, 413 (1999); J. L., DeRisi, V. R. Iyer, P. O. Brown, Science 278, 680 (1997); E. A. Winzeler et al., Science 285, 901 (1999). P. Uetz et al., Nature 403, 623 (2000); T. Ito et al., Proc. Natl. Acad. Sci. USA. 97, 1143 (2000) • 3 H. Zhu, M. Snyder, Curr. Opin. Chem. Biol. 5, 40 (2001). • 4 M. R. Martzen et al., Science 286, 1153 (1999). • 5 H. Zhu et al., Nat. Genet. 26, 283 (2000). • 6 G. MacBeath, S. L. Schreiber, Science 289, 1760 (2000). • 7 A. Caveman, J. Cell Sci. 113, 3543 (2000). • 8 P. Arenkov et al., Anal. Biochem 278, 123 (2000). • 9 D. A. Mitchell, T. K. Marshall, R. J. Deschenes, Yeast 9, 715 (1993). The expression vector pEGH was created by inserting an RGS-HisX6 epitope tag between the GST gene and the polycloning site of pEG(KG). The yeast ORFs were cloned using the strategy described previously (5), except every step was done in a 96-well format. Plasmid DNAs confirmed by DNA sequencing were reintroduced into both yeast (Y258) and E. coli (DH5a). […] 0.1 mM calcium was present in buffers in all subsequent steps. The chip was washed three times with PBS at RT. Cy3-conjugated streptavidin (Jackson IR, USA) (1:5000 dilution) was added to the chip and incubated for 30 min at RT. After extensive washing, the chip was spun dry and scanned using a microarray scanner; the data was subsequently acquired with the GENEPIX™ array densitometry software (Axon, USA). • 12 S. S. Hook, A. R. Means, Annu. Rev. […]

Row | Molecule | calmodulin binding
1 | B1 | identified
2 | B2 | identified
